Experimental data: patent US20260152569A1, “ANTI-GPC1 MONOCLONAL ANTIBODY, THERAPEUTIC AND DIAGNOSTIC USES THEREOF” (CENTRO DI RIFERIMENTO ONCOLOGICO DI AVIANO, priority 2022, published 2026)
Values joined by “and” are separate entries in the source; they are usually repeats but may differ in a detail not shown here. Equal entries are not always repeated.

Columns and labels:
BXPC3 tumor [1] = assay: Therapeutic effect of doxorubicin-loaded chitosan nanobubbles in BXPC3 mouse model
Method: The amount of doxorubicin loaded nanobubbles used for the treatments in each group corresponded to 2 mg/kg per week of doxorubicin for each different treatment modality. Data are represented as mean±SD.
P-value was calculated using the log-rank test. Colored areas correspond to 95% confidence interval.
The survival data from the four treatments were evaluated by Kaplan-Meier curves to compare each treatment with one at time of the others. […] P-value was calculated using the log-rank test. Colored areas correspond to 95% confidence interval.
The study started when the subcutaneous BXPC3-tumor reached a volume of 75 mm^3. The humanitarian endpoints that had caused the euthanasia of mice were: one tumor dimension greater than 12 mm or ulceration of the tumor. Four groups of mice were tested: a first group of animals treated with doxo-CS NBs-C (n=6); a second group of animals treated with doxo-CS NBs (n=6); a third group of control animals treated with doxorubicin (doxo 2 mg/kg) in order to treat mice at the same concentration (2 mg/kg for a week) (n=10); a fourth group of control animals treated with PBS solution (n=8).
Mice survival was evaluated using Kaplan-Meier curves and the p-value was calculate using log rank test.

GPC1 protein [2] = target: T1, GPC1 protein (Homo sapiens, UniProt P35052); assay: Immunofluorescence of GPC1 protein in GBM, liver and lung tissue; design: specifically recognize GPC1 protein in GBM tissue samples from surgical resection; from tissue; host or cells: glioblastoma (GBM) tissue from surgical resection; healthy liver and lung tissue
T1 sequence (P35052 24-530): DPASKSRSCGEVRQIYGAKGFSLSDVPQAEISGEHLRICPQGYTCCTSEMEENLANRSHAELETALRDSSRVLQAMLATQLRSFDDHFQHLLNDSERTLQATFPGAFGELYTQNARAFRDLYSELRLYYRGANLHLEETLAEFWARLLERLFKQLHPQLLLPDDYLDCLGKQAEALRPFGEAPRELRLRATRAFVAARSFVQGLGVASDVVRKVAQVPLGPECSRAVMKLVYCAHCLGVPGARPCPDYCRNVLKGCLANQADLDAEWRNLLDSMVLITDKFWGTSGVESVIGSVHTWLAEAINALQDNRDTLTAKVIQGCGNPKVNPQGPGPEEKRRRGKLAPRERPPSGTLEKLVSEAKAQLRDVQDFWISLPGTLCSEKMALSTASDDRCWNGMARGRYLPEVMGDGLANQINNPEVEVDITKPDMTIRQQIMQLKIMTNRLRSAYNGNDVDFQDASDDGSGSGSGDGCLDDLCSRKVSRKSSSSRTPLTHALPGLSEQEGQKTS
Method: Scale bar corresponds to 50 μm.
(§1) Remarkably, the same expression pattern as flow cytometry analysis was obtained by immunofluorescence analysis with anti-GPC1 C. […] Thus, the results of immunofluorescence analysis confirmed the ability of anti-GPC1 C to detect the GPC1 protein that was observed when flow cytometry was performed (FIGS. 1A, 1B). • c) Anti-GPC1 C was also shown to specifically recognize GPC1 protein in GBM tissue samples from surgical resection.

GPC1 protein [3] = assay: Immunofluorescence of GPC1 protein in BXPC3 xenograft tumor masses and mouse organs; design: species or system athymic nude mice; conditions: organs of the xenograft mice
Method: (§2) Scale bar corresponds to 25 μm.
as §1

GPC1 protein [4] = target: T2, GPC1 protein (Homo sapiens, UniProt P35052); assay: as above; design: species or system athymic nude mice; conditions: tumor masses of BXPC3 xenografts
T2 construct: in tumor masses of xenografts obtained by subcutaneous injection of BXPC3 into athymic nude mice; from tissue; host or cells: BXPC3 xenograft tumour masses from athymic nude mice; organs of the same mice as negative control
T2 sequence (P35052 24-530 limits assumed): T1 sequence (P35052 24-530)
Method: as §2, §1

GPC1 protein [5] = target: T1, GPC1 protein; assay: Flow cytometry analysis of GPC1 expression in cell lines; assay type: cell-based; design: endogenous in cells; host or cells: BXPC3, U87MG, T98G (GPC1-expressing); JURKAT (no GPC1); conditions: GPC1-expressing BXPC3, U87MG and T98G cell lines
Method: as §1

BXPC3 tumor [6] = test system: BXPC3 tumor
Method: Experimental endpoint was set up at day 50. Untreated mice (orange line) were used as controls. Data were visualized using Kaplan-Meier analysis, p-value of 0.00016 was calculated using the log rank test.
Data are represented as mean±standard error (SE).
The treatment procedure started when the tumor reached a volume of 75 mm^3, and when possible, it was stopped at day 42. For mice reaching the day 42, the final experimental endpoint was set up at day 50 from the beginning of the treatment procedure.

GPC1 protein [7] = target: T1, GPC1 protein; assay: Immunofluorescence of GPC1 protein in cell lines; assay type: cell-based; design: endogenous in cells; host or cells: BXPC3, U87MG, T98G (GPC1-expressing); conditions: BXPC3, U87MG and T98G cell lines
Method: as §1

GPC1 protein [8] = assay: Flow cytometry analysis of GPC1 expression in cell lines; assay type: cell-based, human; conditions: JURKAT cell line (complete absence of GPC1 protein)
Method: as §1

BXPC3 tumor mass [9] = assay: Complement-dependent cytotoxicity in BXPC3 tumor mass (hematoxylin-eosin, immunofluorescence); conditions: compared with murine IgM pool or PBS
Method: The nuclei are stained in purple, the cytoplasm is stained in pink.
Blue represents nuclei and green represents the signal related to the immunological cell biomarkers (CD14 and CD56, respectively).
Blue represents nuclei and green represents the signal related to the complement system effectors (C1q, C3, C9, respectively).
To better characterize the source of cell death, the presence of complement system effectors, but also the recruitment of macrophages, and NK cells was also analyzed by immunofluorescence analysis (FIGS. 7A, 7B).
In particular, the involvement of the complement system was investigated, by analyzing C1q, C3 (C3b, iC3b, C3c), and C9.

BXPC3 tumor mass [10] = assay: In vivo and ex vivo biodistribution of Cy5.5-conjugated anti-GPC1 C in BXPC3 xenograft mice; design: species or system athymic nude mice
Method: Whole-body scan of a representative mouse in prone and supine position is shown. […] Green circles enclose the tumor mass.
Data are reported as average efficiency mean±SD (n=4). P-value was calculated using the t-test, for the t-test, anti-GPC1 C was used as reference for each time point. ns: ≥0.05; *: 0.05<p≤0.01; **: 0.01<p≤0.001.
Data are reported as mean±SD (n=4). P-value was calculated using the t-test. ns: ≥0.05.
Blue represents nuclei and green represents IgMs. Scale bar corresponds to 25 μm.
Specifically, in vivo time course experiments with signal detection from 0 to 96 hours and signal evaluation every 24 hours were performed to evaluate the ability to target tumor mass and the overall biodistribution of anti-GPC1 C when injected into the mouse tail vein after conjugation with Cy5.5 for detection using the VIVOVISION IVIS®Lumina (Xenogen) in vivo imaging device (FIGS. 5A, B, C, D, E, F, G).

GPC1 protein [11] = assay: Immunofluorescence of GPC1 protein in cell lines; assay type: cell-based, human; conditions: JURKAT cells
Method: as §1

[12] = 7 mice, i.p. 38 micrograms twice a week
[13] = i.v., Cy5.5 conjugate, in vivo imaging

## COc1cccc2c1C(=O)c1c(O)c3c(c(O)c1C2=O)C[C@@](O)(C(=O)CO)C[C@@H]3O[C@H]1C[C@H](N)[C@H](O)[C@H](C)O1 [Doxo, doxorubicin]
BXPC3 tumor [1]; 2 mg/kg doxorubicin per week
  Mean survival ± S.D.: 13.9 ± 1.59 days
BXPC3 tumor [1]; reference treatment: Untreated
  HR: 0.19

B1: anti-GPC1 C: anti-GPC1 IgM monoclonal antibody of the invention, heavy chain variable region SEQ ID NO: 13, light chain variable region SEQ ID NO: 14 (antibody, listed as Mus musculus, V domains shown)
VH: QVQLQQSDAELVKPGASVKISCKASGYTFTDHAIHWVKQKPEQGLEWIGYISPGNGDIKYNEKFKGKATLTADKSSSTAYMQLNSLTSEDSAVYFCKRYAYWGQGTLVTVSA
VL: DVLMTQTPLSLPVSLGDQASISCRSSQSIVHSNGNTYLEWYLQKPGQSPKLLIYKVSNRFSGVPDRFSGSGSGTDFTLKISRVEAEDLGVYYCFQGSHVPWTFGGGTKLEIKP
modifications: IgM constant regions
GPC1 protein [2]; GBM tissue samples from surgical resection
  GPC1 protein signal by immunofluorescence: a specific signal was observed
GPC1 protein [2]; healthy tissues (liver and lung)
  GPC1 protein signal by immunofluorescence: no signal corresponding to GPC1 protein was detected
GPC1 protein [3]
  GPC1 protein signal by immunofluorescence: no signals were obtained
GPC1 protein [4]
  GPC1 protein recognition by immunofluorescence: specifically recognize the GPC1 protein
GPC1 protein [5]
  GPC1 protein recognition by flow cytometry: specifically recognize the GPC1 protein
BXPC3 tumor [6]; [12]
  % survival at day 50: 57.1%
  Mean day of euthanasia/sacrifice: 42.7
BXPC3 tumor [6]; individual mouse, i.p. 38 micrograms twice a week until day 42, experimental endpoint day 50
  Day of end point: 28 and 29 and 42 and 50 (4×)
BXPC3 tumor [6]; observed in one animal
  complete remission of the tumor mass: complete remission
BXPC3 tumor [6]; p=0.00016, log-rank test
  survival time intervals versus PBS-treated mice: significantly longer
BXPC3 tumor [6]; treated group
  toxicity (weight loss, diarrhea, vomiting, convulsions, dehydration, tachypnea, dyspnea, motionless): no evidence of toxicity
GPC1 protein [7]
  GPC1 protein signal by immunofluorescence: a signal corresponding to the GPC1 protein was observed
GPC1 protein [8]
  GPC1 protein signal by flow cytometry: no signals corresponding to the presence of the GPC1 protein
BXPC3 tumor mass [9]; 96 hours
  tumor cell death by hematoxylin-eosin staining: clear indicator of cell death
BXPC3 tumor mass [9]; immunofluorescence
  complement system deposition (C1q, C3, C9), macrophage and NK cell recruitment in tumors: high degree of complement system deposition (C1q, C3, C9), macrophage and NK cell recruitment
BXPC3 tumor mass [10]; 96 hours after administration, IVIS Lumina
  ex vivo accumulation in the tumor mass compared to the IgM pool: higher accumulation
BXPC3 tumor mass [10]; 96 hours after injection
  ex vivo immunofluorescence detection in the BXPC3 tumor mass: still detected
BXPC3 tumor mass [10]; ex vivo immunofluorescence
  time remaining in the tumor: at least 96 hours
BXPC3 tumor mass [10]; i.v., Cy5.5 conjugate, BXPC3 xenograft, imaging every 24 h from 0 to 96 h
  peak of accumulation on the tumor mass: 72 h
BXPC3 tumor mass [10]; [13]
  signal in the kidneys and liver: A clear signal
  tumor mass signal at 96 hours: maintained up to 96 hours
GPC1 protein [11]
  GPC1 protein signal by immunofluorescence: no signal was observed
